Reference: patent US20180155451A1 (published 2018)

T1: FcγRIIb extracellular domain with C-terminal His tag (human, UniProt P31994 43-217)
T1 construct: extracellular domain; Soluble receptor expressed in FreeStyle293 cells; analyte in Biacore; also called FcgRIIb; 2b; not shown: His tag at the C terminus
T1 sequence (looked up): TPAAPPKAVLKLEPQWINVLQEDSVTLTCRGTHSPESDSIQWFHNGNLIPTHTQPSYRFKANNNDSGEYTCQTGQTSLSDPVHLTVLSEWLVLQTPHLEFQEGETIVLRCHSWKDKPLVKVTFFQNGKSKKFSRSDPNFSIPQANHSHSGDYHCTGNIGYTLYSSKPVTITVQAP

B1: GpH7-A5/GpH7-B3 variant P329_12R/GpL16-k0 (antibody, human IgG1, kappa)
heavy 1: not shown
heavy 2: not shown
light: DIVMTQSPLSLPVTPGEPASISCQASESLVHSNRNTYLHWYLQKPGQSPQLLIYKVSNRFSGVPDRFSGSGSGTDFTLKISRVEAEDVGVYYCSQNTHVPPTFGQGTKVEIERTVAAPSVFIFPPSDEQLKSGTASVVCLLNNFYPREAKVQWKVDNALQSGNSQESVTEQDSKDSTYSLSSTLTLSKADYEKHKVYACEVTHQGLSSPVTKSFNRGEC
notes: He Ab: substitution in one H chain only; also called He Ab P329R
B2: GpH7-A5/GpH7-B3 variant P329_13S/GpL16-k0 (antibody, human IgG1, kappa)
heavy 1: not shown
heavy 2: not shown
light: DIVMTQSPLSLPVTPGEPASISCQASESLVHSNRNTYLHWYLQKPGQSPQLLIYKVSNRFSGVPDRFSGSGSGTDFTLKISRVEAEDVGVYYCSQNTHVPPTFGQGTKVEIERTVAAPSVFIFPPSDEQLKSGTASVVCLLNNFYPREAKVQWKVDNALQSGNSQESVTEQDSKDSTYSLSSTLTLSKADYEKHKVYACEVTHQGLSSPVTKSFNRGEC
notes: He Ab: heterodimerized anti-glypican-3 IgG1, substitution in one H chain only; also called He Ab P329S
B3: GpH7-A5/GpH7-B3 variant P329_14T/GpL16-k0 (antibody, human IgG1, kappa)
heavy 1: not shown
heavy 2: not shown
light: DIVMTQSPLSLPVTPGEPASISCQASESLVHSNRNTYLHWYLQKPGQSPQLLIYKVSNRFSGVPDRFSGSGSGTDFTLKISRVEAEDVGVYYCSQNTHVPPTFGQGTKVEIERTVAAPSVFIFPPSDEQLKSGTASVVCLLNNFYPREAKVQWKVDNALQSGNSQESVTEQDSKDSTYSLSSTLTLSKADYEKHKVYACEVTHQGLSSPVTKSFNRGEC
notes: He Ab: heterodimerized anti-glypican-3 IgG1, substitution in one H chain only; also called He Ab P329T
B4: GpH7-A5/GpH7-B3 variant P329_15Y/GpL16-k0 (antibody, human IgG1, kappa)
heavy 1: not shown
heavy 2: not shown
light: DIVMTQSPLSLPVTPGEPASISCQASESLVHSNRNTYLHWYLQKPGQSPQLLIYKVSNRFSGVPDRFSGSGSGTDFTLKISRVEAEDVGVYYCSQNTHVPPTFGQGTKVEIERTVAAPSVFIFPPSDEQLKSGTASVVCLLNNFYPREAKVQWKVDNALQSGNSQESVTEQDSKDSTYSLSSTLTLSKADYEKHKVYACEVTHQGLSSPVTKSFNRGEC
notes: He Ab: heterodimerized anti-glypican-3 IgG1, substitution in one H chain only; also called He Ab P329Y
B5: GpH7-A5/GpH7-B3 variant P329_16H/GpL16-k0 (antibody, human IgG1, kappa)
heavy 1: not shown
heavy 2: not shown
light: DIVMTQSPLSLPVTPGEPASISCQASESLVHSNRNTYLHWYLQKPGQSPQLLIYKVSNRFSGVPDRFSGSGSGTDFTLKISRVEAEDVGVYYCSQNTHVPPTFGQGTKVEIERTVAAPSVFIFPPSDEQLKSGTASVVCLLNNFYPREAKVQWKVDNALQSGNSQESVTEQDSKDSTYSLSSTLTLSKADYEKHKVYACEVTHQGLSSPVTKSFNRGEC
notes: He Ab: heterodimerized anti-glypican-3 IgG1, substitution in one H chain only; also called He Ab P329H
B6: GpH7-A5/GpH7-B3 variant P329_18N/GpL16-k0 (antibody, human IgG1, kappa)
heavy 1: not shown
heavy 2: not shown
light: DIVMTQSPLSLPVTPGEPASISCQASESLVHSNRNTYLHWYLQKPGQSPQLLIYKVSNRFSGVPDRFSGSGSGTDFTLKISRVEAEDVGVYYCSQNTHVPPTFGQGTKVEIERTVAAPSVFIFPPSDEQLKSGTASVVCLLNNFYPREAKVQWKVDNALQSGNSQESVTEQDSKDSTYSLSSTLTLSKADYEKHKVYACEVTHQGLSSPVTKSFNRGEC
notes: He Ab: heterodimerized anti-glypican-3 IgG1, substitution in one H chain only; also called He Ab P329N
B7: GpH7-A5/GpH7-B3 variant P329_19Q/GpL16-k0 (antibody, human IgG1, kappa)
heavy 1: not shown
heavy 2: not shown
light: DIVMTQSPLSLPVTPGEPASISCQASESLVHSNRNTYLHWYLQKPGQSPQLLIYKVSNRFSGVPDRFSGSGSGTDFTLKISRVEAEDVGVYYCSQNTHVPPTFGQGTKVEIERTVAAPSVFIFPPSDEQLKSGTASVVCLLNNFYPREAKVQWKVDNALQSGNSQESVTEQDSKDSTYSLSSTLTLSKADYEKHKVYACEVTHQGLSSPVTKSFNRGEC
notes: He Ab: heterodimerized anti-glypican-3 IgG1, substitution in one H chain only; also called He Ab P329Q

What was measured:
[1] = target: T1, FcγRIIb extracellular domain with …; assay: SPR (Biacore), antibody captured on antigen peptide chip, FcγR as analyte; binding relative to GpH7-A5/GpH7-B3/GpL16-k0 = 100
[2] = target: T2, FcγRIa extracellular domain with C-terminal His tag (human, UniProt P12314 16-292); assay: as above
T2 construct: extracellular domain; Soluble receptor expressed in FreeStyle293 cells; analyte in Biacore; also called FcgRI; FcgRIa; not shown: His tag at the C terminus
T2 sequence (P12314 16-292): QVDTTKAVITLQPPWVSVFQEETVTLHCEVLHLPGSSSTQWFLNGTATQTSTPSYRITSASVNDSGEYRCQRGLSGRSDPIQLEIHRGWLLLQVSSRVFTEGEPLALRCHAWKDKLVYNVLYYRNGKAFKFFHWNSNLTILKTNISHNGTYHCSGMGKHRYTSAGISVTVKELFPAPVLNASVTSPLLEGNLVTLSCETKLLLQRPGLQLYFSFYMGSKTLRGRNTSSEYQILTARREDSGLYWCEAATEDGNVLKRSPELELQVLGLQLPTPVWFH

[3] = target: T2, FcγRIa extracellular domain with …; assay: SPR (Biacore); He/Con_1a divided by He/Con_2b (FcγRIIb)
How it was run: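 Measurements were made at 25 °C with HBS-EP+ as running buffer. Each antibody sat on a chip bearing its antigen peptide, amine-coupled or streptavidin-bound, while FcγR was passed over; 10 mM glycine-HCl, pH 1.5 removed captured antibody.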

Binder | He/Con_2b (IIb binding) [1] | He/Con_1a (Ia binding) [2] | He_1a/2b (Ia/IIb) [3]
B1 | 17.6 % of control (control = 100) | 74.3 % of control (control = 100) | 4.22
B2 | 41 % of control (control = 100) | 93.3 % of control (control = 100) | 2.27
B3 | 37.9 % of control (control = 100) | 89.7 % of control (control = 100) | 2.37
B4 | 45.7 % of control (control = 100) | 95.6 % of control (control = 100) | 2.09
B5 | 39.1 % of control (control = 100) | 95.6 % of control (control = 100) | 2.45
B6 | 40.4 % of control (control = 100) | 92.4 % of control (control = 100) | 2.29
B7 | 30.7 % of control (control = 100) | 70.7 % of control (control = 100) | 2.31
